Key:
Assay in all cases: cell-based or functional assay
[1] = molecular target: HIV-1 NL43 envelope glycoprotein (Env) on pseudovirus (HIV-1)
[2] = molecular target: HIV-1 Env of isolate MGRM-G-016 (HIV-1)
[3] = molecular target: HIV-1 Env of isolate MGRM-AE-004 (HIV-1)
[4] = molecular target: HIV-1 Env of isolate MGRM-AE-008 (HIV-1)
[5] = molecular target: HIV-1 Env of isolate MGRM-G-014 (HIV-1)
[6] = molecular target: HIV-1 92UG024 envelope glycoprotein (Env) on pseudovirus (HIV-1)
[7] = molecular target: HIV-1 Env of isolate MGRM-G-013 (HIV-1)
[8] = molecular target: HIV-1 Env of isolate MGRM-G-017 (HIV-1)
[9] = molecular target: HIV-1 Env of isolate MGRM-G-006 (HIV-1)
[10] = molecular target: HIV-1 Env of isolate MGRM-AE-005 (HIV-1)
[11] = molecular target: HIV-1 92RW020 envelope glycoprotein (Env) on pseudovirus (HIV-1)
[12] = molecular target: HIV-1 Env of isolate MGRM-AE-007 (HIV-1)
[13] = molecular target: HIV-1 92BR020 envelope glycoprotein (Env) on pseudovirus (HIV-1)
[14] = molecular target: HIV-1 Env of isolate MGRM-G-027 (HIV-1)
[15] = molecular target: HIV-1 Env of isolate MGRM-G-009 (HIV-1)
[16] = molecular target: HIV-1 Env of isolate MGRM-G-011 (HIV-1)
[17] = molecular target: aMLV envelope (negative control pseudovirus)
[18] = molecular target: HIV-1 Env of isolate MGRM-G-019 (HIV-1)
[19] = molecular target: HIV-1 Env of isolate MGRM-F1-010 (subtype F) (HIV-1)
[20] = molecular target: HIV-1 Env of isolate MGRM-G-004 (HIV-1)
[21] = molecular target: HIV-1 92TH021 envelope glycoprotein (Env) on pseudovirus (HIV-1)
[22] = molecular target: HIV-1 Env of isolate MG RM-D-028 (subtype D) (HIV-1)
[23] = molecular target: HIV-1 Env of isolate MGRM-G-001 (HIV-1)
[24] = molecular target: HIV-1 Env of isolate MGRM-AE-006 (HIV-1)
[25] = molecular target: HIV-1 Env of isolate MGRM-G-015 (HIV-1)
[26] = molecular target: HIV-1 Env of isolate MGRM-Chronic-B-024 (HIV-1)
[27] = molecular target: HIV-1 Env of isolate MGRM-Chronic-B-010 (HIV-1)
[28] = molecular target: HIV-1 Env of isolate MGRM-Chronic-B-012 (HIV-1)
[29] = molecular target: HIV-1 Env of isolate MGRM-Chronic-B-011 (HIV-1)
[30] = molecular target: HIV-1 Env of isolate MGRM-Chronic-B-023 (HIV-1)
[31] = molecular target: HIV-1 Env of isolate MGRM-D-026 (subtype D), on pseudovirus (HIV-1)
[32] = molecular target: HIV-1 Env of isolate MGRM-Chronic-B-018 (HIV-1)
[33] = molecular target: HIV-1 Env of isolate MGRM-Chronic-B-017 (HIV-1)
[34] = molecular target: HIV-1 Env of isolate JRFL (HIV-1)
[35] = molecular target: HIV-1 Env of isolate MGRM-Chronic-B-020 (HIV-1)

Sequence of 5345_I01 (PGT-137) (antibody) (VH): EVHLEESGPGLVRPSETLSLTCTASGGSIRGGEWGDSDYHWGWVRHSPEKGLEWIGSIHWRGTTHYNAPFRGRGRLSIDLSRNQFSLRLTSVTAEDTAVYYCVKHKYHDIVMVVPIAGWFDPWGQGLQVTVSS
Sequence of 5345_I01 (PGT-137) (antibody) (VL): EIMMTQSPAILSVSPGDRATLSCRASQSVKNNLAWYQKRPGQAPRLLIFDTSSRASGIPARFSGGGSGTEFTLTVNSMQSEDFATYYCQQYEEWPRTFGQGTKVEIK

5141_B17 (PGT-126) (antibody)
IC50 (ug/ml), neutralizing activity [1]: > 10 µg/mL | IC50, pseudovirus neutralization [2]: > 50 µg/mL | neutralization IC50 [3]: > 50 µg/mL | neutralization IC50 [4]: > 50 µg/mL | IC50, pseudovirus neutralization [5]: 9 ng/mL | IC50 (ug/ml), neutralizing activity [6]: > 10 µg/mL | IC50, pseudovirus neutralization [7]: 48.8 µg/mL | IC50, pseudovirus neutralization [8]: > 50 µg/mL | IC50, pseudovirus neutralization [9]: > 50 µg/mL | neutralization IC50 [10]: 0.324 µg/mL | IC50 (ug/ml), neutralizing activity [11]: 0.0046 µg/mL | neutralization IC50 [12]: > 50 µg/mL | IC50 (ug/ml), neutralizing activity [13]: 0.0163 µg/mL | IC50, pseudovirus neutralization [14]: 0.875 µg/mL | IC50, pseudovirus neutralization [15]: > 50 µg/mL | IC50, pseudovirus neutralization [16]: 7.32 µg/mL | IC50 [17]: > 10 µg/mL | IC50, pseudovirus neutralization [17]: > 50 µg/mL | IC80 [17]: > 10 µg/mL | IC90 [17]: > 10 µg/mL | IC95 [17]: > 10 µg/mL | IC50, pseudovirus neutralization [18]: 0.018 µg/mL | IC50 (µg/mL), pseudovirus neutralization [19]: > 50 µg/mL | IC50, pseudovirus neutralization [20]: > 50 µg/mL | IC50 (ug/ml), neutralizing activity [21]: 0.115 µg/mL | IC50 (µg/mL), pseudovirus neutralization [22]: > 50 µg/mL | IC50, pseudovirus neutralization [23]: 0.038 µg/mL | neutralization IC50 [24]: 17.3 µg/mL | IC50, pseudovirus neutralization [25]: > 50 µg/mL

5345_I01 (PGT-137) (antibody)
IC50 [26]: > 50 µg/mL | IC50 [27]: > 50 µg/mL | IC50, pseudovirus neutralization [2]: > 50 µg/mL | IC50, pseudovirus neutralization [5]: > 50000 ng/mL | IC50, pseudovirus neutralization [7]: > 50 µg/mL | IC50, pseudovirus neutralization [8]: 34.9 µg/mL | IC50, pseudovirus neutralization [9]: > 50 µg/mL | IC50 [28]: > 50 µg/mL | IC50 [29]: > 50 µg/mL | IC50 [30]: > 50 µg/mL | IC50, pseudovirus neutralization [31]: > 50 µg/mL | IC50, pseudovirus neutralization [14]: 0.228 µg/mL | IC50 [32]: > 50 µg/mL | IC50, pseudovirus neutralization [15]: > 50 µg/mL | IC50, pseudovirus neutralization [16]: > 50 µg/mL | IC50, pseudovirus neutralization [17]: > 50 µg/mL | IC50, pseudovirus neutralization [18]: 0.126 µg/mL | IC50, pseudovirus neutralization [20]: > 50 µg/mL | IC50 [33]: > 50 µg/mL | IC50 [34]: > 50 µg/mL | IC50, pseudovirus neutralization [23]: 41.7 µg/mL | IC50, pseudovirus neutralization [25]: > 50 µg/mL | IC50 [35]: 32.9 µg/mL

4877_D15 (PGT-122) (antibody)
IC50 (ug/ml), neutralizing activity [1]: > 10 µg/mL | IC50, pseudovirus neutralization [2]: > 50 µg/mL | neutralization IC50 [3]: > 50 µg/mL | neutralization IC50 [4]: > 50 µg/mL | IC50, pseudovirus neutralization [5]: 8 ng/mL | IC50 (ug/ml), neutralizing activity [6]: > 10 µg/mL | IC50, pseudovirus neutralization [7]: 3.45 µg/mL | IC50, pseudovirus neutralization [8]: 0.032 µg/mL | IC50, pseudovirus neutralization [9]: > 50 µg/mL | neutralization IC50 [10]: > 50 µg/mL | IC50 (ug/ml), neutralizing activity [11]: 0.0072 µg/mL | neutralization IC50 [12]: > 50 µg/mL | IC50 (ug/ml), neutralizing activity [13]: 0.0337 µg/mL | IC50, pseudovirus neutralization [14]: 0.606 µg/mL | IC50, pseudovirus neutralization [15]: 0.514 µg/mL | IC50, pseudovirus neutralization [16]: 31.3 µg/mL | IC50, pseudovirus neutralization [17]: > 50 µg/mL | Neutralization by PGT-122, IC50 [17]: > 10 µg/mL | Neutralization by PGT-122, IC80 [17]: > 10 µg/mL | Neutralization by PGT-122, IC90 [17]: > 10 µg/mL | Neutralization by PGT-122, IC95 [17]: > 10 µg/mL | IC50, pseudovirus neutralization [18]: 0.016 µg/mL | IC50 (µg/mL), pseudovirus neutralization [19]: 0.024 µg/mL | IC50, pseudovirus neutralization [20]: 2.15 µg/mL | IC50 (ug/ml), neutralizing activity [21]: > 10 µg/mL | IC50 (µg/mL), pseudovirus neutralization [22]: 3.34 µg/mL | IC50, pseudovirus neutralization [23]: 0.005 µg/mL | neutralization IC50 [24]: > 50 µg/mL | IC50, pseudovirus neutralization [25]: > 50 µg/mL

5123_A06 (PGT-125) (antibody)
IC50 (ug/ml), neutralizing activity [1]: > 10 µg/mL | neutralization IC50 [1]: > 10 µg/mL | neutralization IC80 [1]: > 10 µg/mL | neutralization IC90 [1]: > 10 µg/mL | neutralization IC95 [1]: > 10 µg/mL | IC50, pseudovirus neutralization [2]: > 50 µg/mL | neutralization IC50 [3]: > 50 µg/mL | neutralization IC50 [4]: > 50 µg/mL | IC50, pseudovirus neutralization [5]: 7 ng/mL | IC50 (ug/ml), neutralizing activity [6]: > 10 µg/mL | neutralization IC50 [6]: > 10 µg/mL | neutralization IC80 [6]: > 10 µg/mL | neutralization IC90 [6]: > 10 µg/mL | neutralization IC95 [6]: > 10 µg/mL | IC50, pseudovirus neutralization [7]: > 50 µg/mL | IC50, pseudovirus neutralization [8]: > 50 µg/mL | IC50, pseudovirus neutralization [9]: > 50 µg/mL | neutralization IC50 [10]: 0.01 µg/mL | IC50 (ug/ml), neutralizing activity [11]: 0.0028 µg/mL | neutralization IC50 [11]: 2.8 ng/mL | neutralization IC80 [11]: 0.011 µg/mL | neutralization IC90 [11]: 0.0248 µg/mL | neutralization IC95 [11]: 0.0526 µg/mL | neutralization IC50 [12]: 0.876 µg/mL | IC50 (ug/ml), neutralizing activity [13]: 0.0214 µg/mL | neutralization IC50 [13]: 0.0214 µg/mL | neutralization IC80 [13]: 0.0738 µg/mL | neutralization IC90 [13]: 0.156 µg/mL | neutralization IC95 [13]: 0.323 µg/mL | IC50, pseudovirus neutralization [14]: 34.4 µg/mL | IC50, pseudovirus neutralization [15]: > 50 µg/mL | IC50, pseudovirus neutralization [16]: > 50 µg/mL | IC50, pseudovirus neutralization [17]: > 50 µg/mL | IC50, pseudovirus neutralization [18]: > 50 µg/mL | IC50 (µg/mL), pseudovirus neutralization [19]: > 50 µg/mL | IC50, pseudovirus neutralization [20]: > 50 µg/mL | IC50 (ug/ml), neutralizing activity [21]: 0.0066 µg/mL | neutralization IC50 [21]: 6.6 ng/mL | neutralization IC80 [21]: 0.0292 µg/mL | neutralization IC90 [21]: 0.0701 µg/mL | neutralization IC95 [21]: 0.157 µg/mL | IC50 (µg/mL), pseudovirus neutralization [22]: > 50 µg/mL | IC50, pseudovirus neutralization [23]: 0.033 µg/mL | neutralization IC50 [24]: 0.009 µg/mL | IC50, pseudovirus neutralization [25]: > 50 µg/mL

From US20200024330A1
